Results reported in patent publication US7718626B2, “ErbB3 binding protein compositions and methods of use” (University of Maryland, Baltimore, priority 2005, dated 2010).

Columns and labels:
Format in all cases: cell-based, human
[1] = test system: AR-regulated gene mRNA in LNCaP cells; test: Real-time quantitative reverse-transcription PCR of LNCaP ebp1 transfectants
Method: Real-Time Quantitative Reverse-Transcription PCR: The method of […] et al. (Nakanishi et al., 2003, Quantitative Analysis of Breast Cancer Resistance Protein and Cellular Resistance to Flavopiridol in Acute Leukemia Patients, Clin. Cancer Res., 9: 3320-3328) was used as previously described. […] Real-time quantitative RT-PCR was then performed on the LightCycler (Roche, Indianapolis, Ind.) platform to determine the relative mRNA levels of Ebp1, AR, kallikrein-2 and POV-1. The following forward and reverse primers were selected using Primer Express software and synthesized by Core Laboratory of University of Maryland School of Medicine: Ebp1, sense: […] [NT] ID NO: 6) and antisense: 5° […] ID NO: 7), Kallikrein-2, sense: [NT] ID NO: 8) and antisense: [NT] ID NO: 9), POV-1, sense: [NT] ID NO: 10) and antisense: [NT] ID NO: 11), Actin, sense: [NT] ID NO: 12) and antisense […] ID NO: 13). An SRBR Green PCR Kit was used (Applied Biosystems, Foster City, Calif.), and the analyses were performed in duplicate or triplicate in a total volume of 15 μl including 0.9 μl of 25 mM MgCl2, 1.5 μl SYBR Green I, 0.3 μl Enzyme Mix, 0.75 μl of each primer (50 ng/μl), and 2 μl of cDNA synthesized with random hexamers. Target mRNA values were normalized using actin mRNA as an internal control. The relative quantitation of gene expression was performed using the comparative ΔΔ Ct (threshold method) using β-actin as an internal control ([…] et al., 2002, The Nonsteroidal Anti-Inflammatory Drug Sulindac Causes Down-Regulation of Signal Transducer and Activator of Transcription 3 in Human Oral Squamous Cell Carcinoma Cells, Cancer Research, 62:1004-1007). The results of the microarray analysis were validated using real-time quantitative reverse-transcription PCR, Western blot, and ELISA methods. […] The expression of POV-1 mRNA and protein were each decreased about two-fold. PSA secretion in the conditioned media of ebp1 and vector control cells was assessed by ELISA. […] Finally, […]-2 mRNA expression was decreased approximately 40%.

[2] = test system: androgen-responsive genes in LNCaP cells; test: Microarray gene expression profiling of LNCaP cells stably transfected with ebp1; conditions: ebp1-overexpressing LNCaP cells vs controls
Method: Microarray Analysis: First and second strand cDNA were synthesized from 5-15 μg of total RNA at Genome Explorations (Nashville, Tenn.) using the SuperScript Double-Stranded cDNA Synthesis Kit (Gibco Life Technologies, Gaithersburg, Md.) and an oligo-dT24-T7 (5′-GGCCAGTGAATTGTAATACGACTCACTATAGGGAGGCGG-3′) (SEQ ID NO: 3) primer according to the manufacturer's instructions. cRNA was synthesized labeled with biotinylated UTP and CTP by in vitro transcription using the T7 promoter-coupled, double-stranded cDNA as template and the T7 RNA Transcript Labeling Kit (ENZO Diagnostics Inc., Farmingdale, N.Y.). The fragmented cRNA was hybridized for U133A oligonucleotide arrays (Affymetrix, Santa Clara, Calif.) containing ˜33,000 full-length annotated genes, together with additional probe sets designed to represent EST sequences. The arrays were then stained with phycoerythrein-conjugated streptavidin (Molecular Probes, Eugene, Oreg.), and the fluorescence intensities were determined using a laser confocal scanner (Hewlett-Packard, Palo Alto, Calif.). The scanned images were analyzed using Microarray software (Affymetrix). Sample loading and variations in staining were standardized by scaling the average of the fluorescent intensities of all genes on an array to constant target intensity for all arrays used. The signal intensity for each gene was calculated as the average intensity difference, represented by [E(PM−MM)/(number of probe pairs)], where PM and MM denote perfect-match and mismatch probes. Data analysis was conducted using Microarray Suite 5.0 (Affymetrix) following user guidelines. Only genes with a minimum expression level of 500 were included in this analysis. […] AR-regulated genes include the Androgen Receptor (AR), PSA (kallikrein 3), Kallikrein 2, POV-1, TMPRSS2, and prostate-derived factor.
Ectopic expression of Ebp1 downregulates androgen-regulated genes: Gene expression profiling of LNCaP cells stably transfected with ebp1 was used to determine the range of androgen-dependent genes affected by Ebp1 overexpression. These cells overexpress Ebp1 protein between two- and three-fold (Zhang et al., 2002, Repression of Androgen Receptor Mediated Transcription by the ErbB-3 Binding Protein Ebp1, Oncogene, 21: 5609-5618). Changes in gene expression were measured using microarray analysis of 33,000 transcripts on the Affymetrix U133A chip. To compile a list of differentially regulated genes, only those genes that were activated or repressed at least 3-fold (p <0.05, 500 minimum expression units) were included. […] Forty-one genes were induced and 126 were repressed. Seventy-two of these genes have HUGO approved names. […] These include the Androgen Receptor (3.7 fold decrease), PSA (3.7 fold decrease) as previously reported (Zhang et al., 2002, Repression of Androgen Receptor Mediated Transcription by the ErbB-3 Binding Protein Ebp1, Oncogene, 21: 5609-5618), Kallikrein 2 (3.2 fold decrease), POV-1 (5.0 fold decrease), TMPRSS2 (3.2 fold decrease), and prostate-derived factor (3.2 fold decrease). The Kallikrein 2 gene is regulated by AR, predominantly expressed in prostate tissue, secreted by LNCaP cells, and 78% homologous to PSA. […] The TMPRSS2 gene is androgen-regulated and also highly expressed in prostate and prostate cancer (Afar et al., 2001, Catalytic Cleavage of the Androgen-Regulated TMPRSS2 Protease Results in its Secretion by Prostate and Prostate Cancer Epithelia, Cancer Res., 61:1686-1692).

[3] = test system: secreted PSA of LNCaP cells; test: PSA secretion in conditioned media by ELISA; conditions: ebp1 transfectants vs controls
Method: Measurement of PSA levels: Serum PSA levels were determined using a PSA ELISA kit from DSL, Inc (Webster, Tex.). […] Following a 1 h incubation and extensive washing of the plate, the wells were treated for 30 min with a second anti-PSA antibody labeled with horseradish peroxidase. After washing, the wells were treated with a tetramethylbendizine substrate for 10 min, and absorbance was read at 450 nm. The results of the microarray analysis were validated using real-time quantitative reverse-transcription PCR, Western blot, and ELISA methods. […] The expression of POV-1 mRNA and protein were each decreased about two-fold. PSA secretion in the conditioned media of ebp1 and vector control cells was assessed by ELISA. […] Finally, […]-2 mRNA expression was decreased approximately 40%.

B1: Ebp1: ErbB3 binding protein (SEQ ID NO: 2), tested by stable ectopic expression (ebp1 transfection) in LNCaP cells (protein)
chain: MSGEDEQQEQTIAEDLVVTKYKMGGDIANRVLRSLVEASSSGVSVLSLCEKGDAMIMEETGKIFKKEKEMKKGIAFPTSISVNNCVCHFSPLKSDQDYILKEGDLVKIDLGVHVDGFIANVAHTFVVDVAQGTQVTGRKADVIKAAHLCAEAALRLVKPGNQNTQVTEAWNKVAHSFNCTPIEGMLSHQLKQHVIDGEKTIIQNPTDQQKKDHEKAEFEVHEVYAVDVLVSSGEGKAKDAGQRTTIYKRDPSKQYGLKMKTSRAFFSEVERRFDAMPFTLRAFEDEKKARMGVVECAKHELLQPFNVLYEKEGEFVAQFKFTVLLMPNGPMRITSGPFEPDLYKSEMEVQDAELKALLQSSASRKTQKKKKKKASKTAENPTSGETLEENEAGD
modifications: Homo Sapien
In the case of B1, the “POV-1 mRNA decrease” value [1] is reported as “about two-fold”, the “kallikirein-2 mRNA expression decrease” value [1] is reported as “approximately 40%” and the “AR mRNA down-regulation” value ([1]; real-time PCR) is reported as “more than 2 fold”. The “Androgen Receptor expression, fold decrease” value [2] was 3.7 fold decrease, the “Kallikrein 2 expression, fold decrease” value [2] was 3.2 fold decrease and the “POV-1 expression, fold decrease” value [2] was 5.0 fold decrease. For the same molecule, the “PSA expression, fold decrease” value [2] was 3.7 fold decrease, the “TMPRSS2 expression, fold decrease” value [2] was 3.2 fold decrease and the “prostate-derived factor expression, fold decrease” value [2] was 3.2 fold decrease. The “secreted PSA protein downregulation” value [3] was 10 fold.
